Patent publication US20110165592A1 (HOFFMAN LA ROCHE, published 2011)

T1: human EPO receptor (human, UniProt P19235 25-508)
T1 construct: whole, on cells; In the Western blots the receptor stood in lysates of HeLa-EPOR (recombinant) and UT-7 cells; band of about 60 kDa; also called human erythropoietin receptor
T1 sequence (looked up): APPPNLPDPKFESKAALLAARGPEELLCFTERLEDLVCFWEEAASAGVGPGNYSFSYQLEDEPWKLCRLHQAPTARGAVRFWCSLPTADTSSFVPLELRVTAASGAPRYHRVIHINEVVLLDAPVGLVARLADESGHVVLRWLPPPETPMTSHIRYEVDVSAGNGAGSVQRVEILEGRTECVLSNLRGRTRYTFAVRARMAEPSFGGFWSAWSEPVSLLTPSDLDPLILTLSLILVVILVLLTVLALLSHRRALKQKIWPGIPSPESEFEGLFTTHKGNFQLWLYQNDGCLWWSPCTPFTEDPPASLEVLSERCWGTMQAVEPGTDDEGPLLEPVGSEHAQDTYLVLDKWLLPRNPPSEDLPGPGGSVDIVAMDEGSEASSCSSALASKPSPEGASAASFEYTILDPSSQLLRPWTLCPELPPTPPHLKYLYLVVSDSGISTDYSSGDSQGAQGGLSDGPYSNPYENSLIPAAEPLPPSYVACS

T2: biotinylated peptide 382-402 (corresponding to the mature EPOR) (human, biotinylated (site not stated))
T2 construct: Range counted on mature human EPOR (aa406-426 of the precursor); also called EPOR peptide 382-402
T2 peptide: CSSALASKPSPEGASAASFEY


Key:
[1] = target: T1, human EPO receptor; experiment: Western blot of lysates of HELAwt, HELA-EPOR and UT-7 cells
Procedure: FIG. 2 WB analysis of lysates from HELAwt, HELA-EPOR and UT-7 cells (to show specificity). (a) Specific binding of Mab Cl. […] (b) Specific binding of Mab Cl.
The SDS-PAGE and western blotting were performed according to standard procedures and the NuPAGE® gel system of Invitrogen. The extracts corresponding to different number of cells were loaded in each line of a NuPAGE® Novex® 4-12% Bis-Tris gel. The proteins were then transferred onto PVDF membranes and incubated with the respective antibodies overnight at 4° C. After washing, the membranes were incubated with a conjugate anti-mouse or anti-rabbit IgG-POD and developed using ECL reagents (Lumi-Light^PLus western blotting substrate, Roche Diagnostics GmbH): Results are shown in FIG. 2.

[2] = target: T2, biotinylated peptide 382-402 …; experiment: Biacore 3000 SPR, 25 C, antibody on immobilized biotinylated peptide (avidity)
Procedure: Measurements were made on a BIACORE™ 3000 at 25° C. in HBS-EP-Buffer, pH 7.4 (10 mM HEPES, 150 mM NaCl, 3.4 mM EDTA, 0.005% polysorbate 20 (w/v). 1.0 mg/ml CMD was added to reduce unspecific binding. Results are shown in Table 1.

Binder | binding result [1] | Ka [2] [M⁻¹] | Kd [2] [nM] | koff [2] [s⁻¹] | kon [2] [M⁻¹ s⁻¹]
Mab Cl. 21.3.1 (antibody, V domains shown) VH: AVQVVESGGDLVKPGGSLQLSCAASGFTFSSYAMSWARQTPEKRLEWVATISGRGTYTYYPDSVKGRFTISRDNAKNILYLQMSSLRSEDTAMYYCTPRLFAYWGQGTLVTVSA VL: not shown | binds | – | – | – | –
Mab Cl. 19.1.2 (antibody, V domains shown, Mouse (Balb/c) monoclonal raised against peptide 382-402) VH: QVQLQQSGAELVRPGSSVKISCKASGYTFSRYWMNWVKQRPGQGLEWIGQIYPGDGDTNYIGDFKGKATLTADKSSSIAYMQLSSLTSEDSAVYFCARLMVPTYGLDYWGQGTSVTVSS VL: DIVMSQSPSSLAVSAGEKVTMSCKSSQSLLNSRTRKNYLAWYQQKPGQSPKLLIYWASTRESGVPDRFTGSGSGTDFTLTIYSVQAEDLAVYYCKESYILPYTLGGGTKLEIK | binds | 1.1e+09 | 1 | 0.0021 | 1.9e+06
